Patent EP4682166A1 (Guangzhou Enmai Biotechnology Co., Ltd, dated 2026)

T1: human NMI (N-myc Interacting protein) (human, UniProt Q13287 1-307, limits assumed)
T1 construct: Immunogen and ELISA coating antigen; also called hNMI; antigen 1
T1 sequence (looked up): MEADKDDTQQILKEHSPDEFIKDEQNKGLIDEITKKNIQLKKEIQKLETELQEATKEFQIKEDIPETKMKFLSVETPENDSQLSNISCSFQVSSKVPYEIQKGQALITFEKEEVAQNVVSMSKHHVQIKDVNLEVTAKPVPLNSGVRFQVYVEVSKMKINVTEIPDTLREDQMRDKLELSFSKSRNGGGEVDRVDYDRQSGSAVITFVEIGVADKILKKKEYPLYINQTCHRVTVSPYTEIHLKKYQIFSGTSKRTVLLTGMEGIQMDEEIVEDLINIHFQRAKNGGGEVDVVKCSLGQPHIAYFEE


Legend:
[1] = molecular target: T1, human NMI (N-myc Interacting protein); assay: I-ELISA, hNMI coated 1 ug/mL; antibody 19.53125 ng/mL
[2] = molecular target: T1, human NMI (N-myc Interacting protein); assay: indirect ELISA, human NMI coated; supernatant 1/2187
[3] = molecular target: T1, human NMI (N-myc Interacting protein); assay: indirect ELISA, human NMI coated; supernatant 1/3
[4] = molecular target: T1, human NMI (N-myc Interacting protein); assay: I-ELISA, hNMI coated 1 ug/mL; antibody 156.25 ng/mL
[5] = molecular target: T1, human NMI (N-myc Interacting protein); assay: I-ELISA, hNMI coated 1 ug/mL; antibody 4.8828125 ng/mL
[6] = molecular target: T1, human NMI (N-myc Interacting protein); assay: I-ELISA, hNMI coated 1 ug/mL; antibody 312.5 ng/mL
[7] = molecular target: T1, human NMI (N-myc Interacting protein); assay: I-ELISA, hNMI coated; lower end of the group's range, tied to 94C4 by Table 17
[8] = molecular target: T1, human NMI (N-myc Interacting protein); assay: I-ELISA, hNMI coated 1 ug/mL; antibody 9.765625 ng/mL
[9] = molecular target: T1, human NMI (N-myc Interacting protein); assay: indirect ELISA, human NMI coated; supernatant 1/81
[10] = molecular target: T1, human NMI (N-myc Interacting protein); assay: indirect ELISA, human NMI coated; supernatant 1/59049
[11] = molecular target: T1, human NMI (N-myc Interacting protein); assay: indirect ELISA, human NMI coated (repeats Table 1)
[12] = molecular target: T1, human NMI (N-myc Interacting protein); assay: I-ELISA, hNMI coated 1 ug/mL; antibody 1.2207031 ng/mL
[13] = molecular target: T1, human NMI (N-myc Interacting protein); assay: indirect ELISA, human NMI coated; supernatant 1/243
[14] = molecular target: T1, human NMI (N-myc Interacting protein); assay: indirect ELISA, human NMI coated; supernatant 1/6561
[15] = molecular target: T1, human NMI (N-myc Interacting protein); assay: I-ELISA, hNMI coated 1 ug/mL; antibody 625 ng/mL
[16] = molecular target: T1, human NMI (N-myc Interacting protein); assay: I-ELISA, hNMI coated 1 ug/mL; antibody 1250 ng/mL
[17] = molecular target: T1, human NMI (N-myc Interacting protein); assay: indirect ELISA, human NMI coated; supernatant 1/729
[18] = molecular target: T1, human NMI (N-myc Interacting protein); assay: indirect ELISA, human NMI coated; supernatant 1/19683
[19] = molecular target: T1, human NMI (N-myc Interacting protein); assay: I-ELISA, hNMI coated 1 ug/mL; antibody 2500 ng/mL
[20] = molecular target: T1, human NMI (N-myc Interacting protein); assay: indirect ELISA, human NMI coated; supernatant 1/9
[21] = molecular target: T1, human NMI (N-myc Interacting protein); assay: indirect ELISA, human NMI coated; supernatant 1/27
[22] = molecular target: T1, human NMI (N-myc Interacting protein); assay: I-ELISA, hNMI coated 1 ug/mL; antibody 39.0625 ng/mL
[23] = molecular target: T1, human NMI (N-myc Interacting protein); assay: I-ELISA, hNMI coated 1 ug/mL; antibody 2.4414063 ng/mL
[24] = molecular target: T1, human NMI (N-myc Interacting protein); assay: indirect ELISA, human NMI coated; supernatant undiluted
[25] = molecular target: T1, human NMI (N-myc Interacting protein); assay: indirect ELISA, human NMI coated; supernatant dilution series
[26] = molecular target: T1, human NMI (N-myc Interacting protein); assay: I-ELISA, hNMI coated 1 ug/mL; antibody 78.125 ng/mL
[27] = molecular target: T1, human NMI (N-myc Interacting protein); assay: sandwich ELISA; coating antibody 2.5 ug/mL, detection 94C4-biotin 0.5 ug/mL
[28] = molecular target: T1, human NMI (N-myc Interacting protein); assay: I-ELISA, hNMI coated; upper end of the group's range, tied to 98G10 by Table 17

Row | OD450 [1] | ELISA OD [2] | ELISA OD [3] | OD450 [4] | OD450 [5] | OD450 [6] | OD450 [8] | ELISA OD [9] | ELISA OD [10] | EC50 [11] | OD450 [12] | ELISA OD [13] | ELISA OD [14] | OD450 [15] | OD450 [16] | ELISA OD [17] | ELISA OD [18] | OD450 [19] | ELISA OD [20] | ELISA OD [21] | Binder | also measured
1 | 0.833 OD450 | 2.48 OD | 3.5 OD | 1.93 OD450 | 0.262 OD450 | 2.1 OD450 | 0.482 OD450 | 3.43 OD | 0.585 OD | 0.189 ng/mL | 0.092 OD450 | 3.29 OD | 2.15 OD | 2.19 OD450 | 2.19 OD450 | 2.98 OD | 1.28 OD | 2.17 OD450 | 3.58 OD | 3.47 OD | 94C4 (antibody, V domains shown, Rabbit monoclonal antibody; also called 94C4-1; 94C4-1-biotin (biotin-labelled form)) VH: QSLEESGGGLVQPEGSLTLTCKASGFDFSSNAMCWVRQAPGKGLEWIACISSASSGSSGSTYYASWAKGRFTISKTSSTTVTLQMTSLTAADMATYFCARDGYDLWGPGTLVTVSS VL: QVLTQTPSSVSAAVGGTVTISCQSSPSVYNNYLSWFQQKPGQSPKLLIYRVSTLASGVPSRFSGSGSGTQFTLTISGVQCDDAATYYCAGGYDSASDTYVFGGGTEVVVK | EC50 [7]: 30 ng/mL; OD450 [22]: 1.22 OD450; OD450 [23]: 0.142 OD450; ELISA OD [24]: 3.46 OD; EC50 [25]: 0.189 ng/mL; OD450 [26]: 1.64 OD450
2 | 0.41 OD450 | 1.72 OD | 3.45 OD | 1.71 OD450 | 0.115 OD450 | 1.97 OD450 | 0.217 OD450 | 3.29 OD | 0.237 OD | 1.22 ng/mL | 0.065 OD450 | 2.97 OD | 1.07 OD | 2.08 OD450 | 2.15 OD450 | 2.48 OD | 0.528 OD | 2.17 OD450 | 3.39 OD | 3.32 OD | 98G10 (antibody, V domains shown, Rabbit monoclonal antibody; also called 98G10-1; 98G10-1-biotin (biotin-labelled form)) VH: QEQLEESGGDLVKPEGSLTLTCTASGFSFSASYWICWVRQAPGKGLEWIACIYGGSSGSAYYASWAKGRFTISKTSSTTVTLQMTSLTAADTATYFCARAGYYNYGSAGDIYPSSFKLWGPGTLVTVSS VL: DIVMTQTPASVEAAVGGTVTINCQASQSISTALAWYQQKPGQPPKLLIYTASKVASGVPSRFSGSGSGTQFTLTISDLECADAATYYCQNYYYSSSSITFGGGTEVVVK | detection limit (sensitivity) [27]: 60 pg/mL; EC50 [28]: 70 ng/mL; OD450 [22]: 0.67 OD450; OD450 [23]: 0.081 OD450; ELISA OD [24]: 3.45 OD; EC50 [25]: 1.22 ng/mL; OD450 [26]: 1.18 OD450
